One may read the stoichiometry N as the number of molecules, sites or subunits per partner or assembly.

Results on one substance are retold here after paper PMC2885016.

The assay deals with human P-TEFb (Cdk9 (1-345)•Cyclin T1 (1-266)) (human) (UniProt P50750). As to the kind of experiment: SDS-PAGE of dissolved crystals.
UniProt P50750, sequence (P50750 1-345, chain 1 of 2): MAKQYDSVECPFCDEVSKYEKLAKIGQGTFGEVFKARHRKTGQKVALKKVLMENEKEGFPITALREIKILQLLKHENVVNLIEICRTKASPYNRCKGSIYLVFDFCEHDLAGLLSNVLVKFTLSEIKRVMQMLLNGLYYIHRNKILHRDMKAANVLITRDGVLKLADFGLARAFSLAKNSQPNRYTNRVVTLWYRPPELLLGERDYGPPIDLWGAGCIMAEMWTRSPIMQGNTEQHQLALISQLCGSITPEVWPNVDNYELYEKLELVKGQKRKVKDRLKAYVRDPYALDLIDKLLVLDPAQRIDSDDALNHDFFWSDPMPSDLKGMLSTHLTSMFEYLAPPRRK
UniProt P50750, sequence (O60563 1-266, chain 2 of 2, further chain): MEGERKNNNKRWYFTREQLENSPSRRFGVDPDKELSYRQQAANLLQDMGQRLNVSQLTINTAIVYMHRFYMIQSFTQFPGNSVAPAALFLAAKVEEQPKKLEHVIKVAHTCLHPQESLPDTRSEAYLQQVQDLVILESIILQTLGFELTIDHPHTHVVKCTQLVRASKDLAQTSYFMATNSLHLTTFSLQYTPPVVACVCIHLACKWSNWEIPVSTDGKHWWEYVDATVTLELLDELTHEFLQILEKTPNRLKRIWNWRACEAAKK

As for “HIV-1 Tat (1-86) (from UniProt P04608 1-86) (natural protein)”, the stoichiometry N amounted to 1.
